# In US20260242478A1 (published 2026):
# How the values were obtained:
# [1] = molecular target: T1, Anti-CD28 Fab (SEQ ID NOs: 696, 697); experiment: phage binding ELISA, clonal phage on biotinylated anti-CD28 Fab captured on neutravidin plates;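 also: crude clonal phage supernatants added to wells pretreated with CD28 antigen or blocking buffer only, bound phage detected by HRP-linked anti-M13 antibody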
# T1 construct: In the phage ELISA the Fab was biotinylated and captured on neutravidin coated plates
# T1 sequence (VH, as listed by the source, chain 1 of 2): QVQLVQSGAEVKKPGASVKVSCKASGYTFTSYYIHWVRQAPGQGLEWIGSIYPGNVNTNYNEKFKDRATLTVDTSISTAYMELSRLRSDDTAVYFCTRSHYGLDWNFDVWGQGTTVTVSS
# T1 sequence (VL, as listed by the source, chain 2 of 2): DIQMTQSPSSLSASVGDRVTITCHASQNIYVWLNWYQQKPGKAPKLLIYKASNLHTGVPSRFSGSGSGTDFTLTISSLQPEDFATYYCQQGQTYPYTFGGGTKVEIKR
# Procedure: (§1) After panning, phage infected bacteria were plated out and colonies picked into 96 well blocks. Clonal phage was then amplified and separated from bacterial cells via centrifugation.
# (§2) Clonal phage were harvested as crude supematants and screened via standard ELISAs. […] Prior to the addition of clonal phage, wells were incubated with blocking buffer and CD28 antigen or blocking buffer alone. Without washing or aspirating, clonal phage supematants were then added to the wells and incubated for a short time. Wells were then washed followed by detection of bound phage using a horse radish conjugated anti-M13 antibody. Clonal phage of interest were then sent for sequence analysis.
# [2] = molecular target: T1, Anti-CD28 Fab (SEQ ID NOs: 696, 697); experiment: phage binding ELISA on captured anti-CD28 Fab, wells pre-incubated with CD28 antigen as competitor;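 also: crude clonal phage supernatants added to wells preloaded with CD28 antigen, bound phage read by HRP-conjugated anti-M13 antibody, control wells got blocking buffer alone without CD28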
# Procedure: as §1, §2
# [3] = molecular target: T2, Anti-CD28 Fab (SEQ ID NOs: 696, 697); experiment: phage ELISA on plate-captured anti-CD28 Fab pre-incubated with CD28 antigen (competitor: CD28)
# T2 construct: Biotinylated and captured on neutravidin coated plates in the phage ELISA
# T2 sequence (VH, as listed by the source, chain 1 of 2): as the sequence (VH, as listed by the source, chain 1 of 2) above
# T2 sequence (VL, as listed by the source, chain 2 of 2): as the sequence (VL, as listed by the source, chain 2 of 2) above
# Procedure: as §1, §2
# [4] = molecular target: T2, Anti-CD28 Fab (SEQ ID NOs: 696, 697); experiment: phage ELISA, clonal phage on plate-captured biotinylated anti-CD28 Fab, anti-M13 HRP detection
# Procedure: as §1, §2
# [5] = molecular target: T3, Anti-CD28 Fab (SEQ ID NOs: 696, 697); experiment: phage ELISA; captured anti-CD28 Fab pre-incubated with CD28 antigen as competitor, anti-M13 HRP;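 also: crude clonal phage supernatants added without washing after CD28 pre-incubation, bound phage detected with HRP anti-M13 antibody, reference wells got blocking buffer lacking CD28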
# T3 construct: Biotinylated and captured on neutravidin coated plates in the phage ELISA
# T3 sequence (VH, as listed by the source, chain 1 of 2): as the sequence (VH, as listed by the source, chain 1 of 2) above
# T3 sequence (VL, as listed by the source, chain 2 of 2): as the sequence (VL, as listed by the source, chain 2 of 2) above
# Procedure: as §1, §2
# [6] = molecular target: T3, Anti-CD28 Fab (SEQ ID NOs: 696, 697); experiment: phage ELISA; biotinylated anti-CD28 Fab on neutravidin plate, clonal phage supernatant, anti-M13 HRP
# [7] = molecular target: T4, Anti-CD28 Fab (SEQ ID NOs: 696, 697); experiment: phage ELISA; clonal phage on plate-captured anti-CD28 Fab pre-incubated with CD28 antigen as competitor
# T4 construct: Biotinylated and captured on neutravidin coated plates in the phage ELISA
# T4 sequence (VH, as listed by the source, chain 1 of 2): as the sequence (VH, as listed by the source, chain 1 of 2) above
# T4 sequence (VL, as listed by the source, chain 2 of 2): as the sequence (VL, as listed by the source, chain 2 of 2) above
# Procedure: as §1, §2
# [8] = molecular target: T4, Anti-CD28 Fab (SEQ ID NOs: 696, 697); experiment: phage ELISA; clonal phage on plate-captured biotinylated anti-CD28 Fab, anti-M13 HRP detection
# Procedure: as §1, §2
binder,measurement,setting,value
YCDGHAQEYMVKCL (tested as crude clonal phage supernatant) [Phage-960],"Anti-CD28 Fab (SEQ ID NOs: 696, 697) signal",[1],1.61
same,Anti-CD28 Fab signal in the presence of CD28,[2],0.06
YCDGHAKEYIQKCL [Phage-976],Anti-CD28 Fab signal in the presence of CD28 (phage binding ELISA),[3],0.06
same,Anti-CD28 Fab signal (phage binding ELISA),[4],1.58
YCDGHSWQYMWKCI [Phage-981],Anti-CD28 Fab signal in the presence of CD28 (phage binding ELISA),[3],0.09
same,Anti-CD28 Fab signal (phage binding ELISA),[4],1.57
YCEGHADEYMWKCL [Phage-970],Anti-CD28 Fab signal in the presence of CD28 (phage binding ELISA),[3],0.06
same,Anti-CD28 Fab signal (phage binding ELISA),[4],1.59
YCEGHSVEYIGKCL [Phage-971],Anti-CD28 Fab signal in the presence of CD28 (phage binding ELISA),[3],0.07
same,Anti-CD28 Fab signal (phage binding ELISA),[4],1.59
YCAGHSPQYMEKCL [Phage-956],"Phage binding ELISA, Anti-CD28 Fab signal in the presence of CD28",[5],0.06
same,"Phage binding ELISA, Anti-CD28 Fab signal",[6],1.61
YCDGHAQEFIWKCL (tested as crude clonal phage supernatant) [Phage-968],"Anti-CD28 Fab (SEQ ID NOs: 696, 697) signal",[1],1.6
same,Anti-CD28 Fab signal in the presence of CD28,[2],0.1
YCDGHSPEYMLKCL [Phage-955],"Phage binding ELISA, Anti-CD28 Fab signal in the presence of CD28",[5],0.07
same,"Phage binding ELISA, Anti-CD28 Fab signal",[6],1.61
YCSGHLPEYMWKCL (tested as crude clonal phage supernatant) [Phage-958],"Anti-CD28 Fab (SEQ ID NOs: 696, 697) signal",[1],1.61
same,Anti-CD28 Fab signal in the presence of CD28,[2],0.1
YCDGHRVEYMAKCL [Phage-972],Anti-CD28 Fab signal in the presence of CD28 (phage binding ELISA),[3],0.09
same,Anti-CD28 Fab signal (phage binding ELISA),[4],1.58
YCEGHLGQYMEKCL (tested as crude clonal phage supernatant) [Phage-998],"Phage binding ELISA, Anti-CD28 Fab signal in the presence of CD28",[7],0.08
same,"Phage binding ELISA, Anti-CD28 Fab signal",[8],1.54
YCDGHAPEYLTKCL (tested as crude clonal phage supernatant) [Phage-1000],"Phage binding ELISA, Anti-CD28 Fab signal in the presence of CD28",[7],0.06
same,"Phage binding ELISA, Anti-CD28 Fab signal",[8],1.53
YCEGHSWEHMEKCL [Phage-973],Anti-CD28 Fab signal in the presence of CD28 (phage binding ELISA),[3],0.06
same,Anti-CD28 Fab signal (phage binding ELISA),[4],1.58
YCAGHSPEYMQKCL (tested as crude clonal phage supernatant) [Phage-961],"Anti-CD28 Fab (SEQ ID NOs: 696, 697) signal",[1],1.6
same,Anti-CD28 Fab signal in the presence of CD28,[2],0.08
YCDGHAQEYMDKCL [Phage-950],"Phage binding ELISA, Anti-CD28 Fab signal in the presence of CD28",[5],0.08
same,"Phage binding ELISA, Anti-CD28 Fab signal",[6],1.62
YCEGHSAAYMQKCL (tested as crude clonal phage supernatant) [Phage-963],"Anti-CD28 Fab (SEQ ID NOs: 696, 697) signal",[1],1.6
same,Anti-CD28 Fab signal in the presence of CD28,[2],0.09
YCDGHLPQYLQKCT [Phage-975],Anti-CD28 Fab signal in the presence of CD28 (phage binding ELISA),[3],0.07
same,Anti-CD28 Fab signal (phage binding ELISA),[4],1.58
YCDGHLAVYMAKCL (tested as crude clonal phage supernatant) [Phage-1006],"Phage binding ELISA, Anti-CD28 Fab signal in the presence of CD28",[7],0.08
same,"Phage binding ELISA, Anti-CD28 Fab signal",[8],1.52
YCEGHSEEFMSKCL [Phage-982],Anti-CD28 Fab signal in the presence of CD28 (phage binding ELISA),[3],0.08
same,Anti-CD28 Fab signal (phage binding ELISA),[4],1.57
YCEGHMPEYLQKCL (tested as crude clonal phage supernatant) [Phage-964],"Anti-CD28 Fab (SEQ ID NOs: 696, 697) signal",[1],1.6
same,Anti-CD28 Fab signal in the presence of CD28,[2],0.1
YCDGHSVEYLDKCL (tested as crude clonal phage supernatant) [Phage-1003],"Phage binding ELISA, Anti-CD28 Fab signal in the presence of CD28",[7],0.08
same,"Phage binding ELISA, Anti-CD28 Fab signal",[8],1.53
YCEGHLPLYMDKCL (tested as crude clonal phage supernatant) [Phage-962],"Anti-CD28 Fab (SEQ ID NOs: 696, 697) signal",[1],1.6
same,Anti-CD28 Fab signal in the presence of CD28,[2],0.08
YCEGHLPQYMVKCL [Phage-977],Anti-CD28 Fab signal in the presence of CD28 (phage binding ELISA),[3],0.07
same,Anti-CD28 Fab signal (phage binding ELISA),[4],1.58
YCEGHAPQYIMKCL [Phage-951],"Phage binding ELISA, Anti-CD28 Fab signal in the presence of CD28",[5],0.06
same,"Phage binding ELISA, Anti-CD28 Fab signal",[6],1.62
YCDGHAEEYLLKCL [Phage-979],Anti-CD28 Fab signal in the presence of CD28 (phage binding ELISA),[3],0.05
same,Anti-CD28 Fab signal (phage binding ELISA),[4],1.57
YCDGHSVEYKLKCM (tested as crude clonal phage supernatant) [Phage-959],"Anti-CD28 Fab (SEQ ID NOs: 696, 697) signal",[1],1.61
same,Anti-CD28 Fab signal in the presence of CD28,[2],0.06
YCDGHSEAYMWKCL (tested as crude clonal phage supernatant) [Phage-969],"Anti-CD28 Fab (SEQ ID NOs: 696, 697) signal",[1],1.59
same,Anti-CD28 Fab signal in the presence of CD28,[2],0.07
YCDGHELQYMAKCL (tested as crude clonal phage supernatant) [Phage-965],"Anti-CD28 Fab (SEQ ID NOs: 696, 697) signal",[1],1.6
same,Anti-CD28 Fab signal in the presence of CD28,[2],0.08
YCDGHSVKYMAKCL (tested as crude clonal phage supernatant) [Phage-957],"Anti-CD28 Fab (SEQ ID NOs: 696, 697) signal",[1],1.61
same,Anti-CD28 Fab signal in the presence of CD28,[2],0.06
YCEGHLEEYMAKCL [Phage-954],"Phage binding ELISA, Anti-CD28 Fab signal in the presence of CD28",[5],0.07
same,"Phage binding ELISA, Anti-CD28 Fab signal",[6],1.62
YCEGHAPVYMFKCL (tested as crude clonal phage supernatant) [Phage-997],"Phage binding ELISA, Anti-CD28 Fab signal in the presence of CD28",[7],0.08
same,"Phage binding ELISA, Anti-CD28 Fab signal",[8],1.54
YCDGHNGVYWWKCI (tested as crude clonal phage supernatant) [Phage-999],"Phage binding ELISA, Anti-CD28 Fab signal in the presence of CD28",[7],0.07
same,"Phage binding ELISA, Anti-CD28 Fab signal",[8],1.53
YCAGHSSEYIPKCL [Phage-974],Anti-CD28 Fab signal in the presence of CD28 (phage binding ELISA),[3],0.09
same,Anti-CD28 Fab signal (phage binding ELISA),[4],1.58
YCDGHELKYMLKCL [Phage-952],"Phage binding ELISA, Anti-CD28 Fab signal in the presence of CD28",[5],0.08
same,"Phage binding ELISA, Anti-CD28 Fab signal",[6],1.62
YCAGHLPVYMDKCL (tested as crude clonal phage supernatant) [Phage-1007],"Phage binding ELISA, Anti-CD28 Fab signal in the presence of CD28",[7],0.08
same,"Phage binding ELISA, Anti-CD28 Fab signal",[8],1.52
YCDGHAWQYMWKCL (tested as crude clonal phage supernatant) [Phage-1004],"Phage binding ELISA, Anti-CD28 Fab signal in the presence of CD28",[7],0.07
same,"Phage binding ELISA, Anti-CD28 Fab signal",[8],1.53
YCDGHRLEYLEKCL (tested as crude clonal phage supernatant) [Phage-966],"Anti-CD28 Fab (SEQ ID NOs: 696, 697) signal",[1],1.6
same,Anti-CD28 Fab signal in the presence of CD28,[2],0.06
YCDGHLPEYLAKCL (tested as crude clonal phage supernatant) [Phage-1005],"Phage binding ELISA, Anti-CD28 Fab signal in the presence of CD28",[7],0.06
same,"Phage binding ELISA, Anti-CD28 Fab signal",[8],1.52
YCEGHSAMYIWKCL (tested as crude clonal phage supernatant) [Phage-1008],"Phage binding ELISA, Anti-CD28 Fab signal in the presence of CD28",[7],0.1
same,"Phage binding ELISA, Anti-CD28 Fab signal",[8],1.52
YCQGHADEYMAKCL [Phage-978],Anti-CD28 Fab signal in the presence of CD28 (phage binding ELISA),[3],0.08
same,Anti-CD28 Fab signal (phage binding ELISA),[4],1.58
YCEGHSIQYMTKCL (tested as crude clonal phage supernatant) [Phage-1001],"Phage binding ELISA, Anti-CD28 Fab signal in the presence of CD28",[7],0.13
same,"Phage binding ELISA, Anti-CD28 Fab signal",[8],1.53
YCDGHLLEYKAKCL [Phage-953],"Phage binding ELISA, Anti-CD28 Fab signal in the presence of CD28",[5],0.07
same,"Phage binding ELISA, Anti-CD28 Fab signal",[6],1.62
YCEGHLGIYMTKCL [Phage-980],Anti-CD28 Fab signal in the presence of CD28 (phage binding ELISA),[3],0.08
same,Anti-CD28 Fab signal (phage binding ELISA),[4],1.57
YCAGHLDQYIEKCL (tested as crude clonal phage supernatant) [Phage-967],"Anti-CD28 Fab (SEQ ID NOs: 696, 697) signal",[1],1.6
same,Anti-CD28 Fab signal in the presence of CD28,[2],0.1
YCDGHLQIYMGKCL (tested as crude clonal phage supernatant) [Phage-1002],"Phage binding ELISA, Anti-CD28 Fab signal in the presence of CD28",[7],0.06
same,"Phage binding ELISA, Anti-CD28 Fab signal",[8],1.53
